Tests used:
[1] = target: T1, human 4Ig-B7-H3-His protein (human, UniProt Q5ZPR3 29-466); test: Biacore X100 SPR, 4Ig-B7-H3-His coupled to CM5 chip, antibody injected
T1 construct: also called human B7-H3 protein
T1 sequence: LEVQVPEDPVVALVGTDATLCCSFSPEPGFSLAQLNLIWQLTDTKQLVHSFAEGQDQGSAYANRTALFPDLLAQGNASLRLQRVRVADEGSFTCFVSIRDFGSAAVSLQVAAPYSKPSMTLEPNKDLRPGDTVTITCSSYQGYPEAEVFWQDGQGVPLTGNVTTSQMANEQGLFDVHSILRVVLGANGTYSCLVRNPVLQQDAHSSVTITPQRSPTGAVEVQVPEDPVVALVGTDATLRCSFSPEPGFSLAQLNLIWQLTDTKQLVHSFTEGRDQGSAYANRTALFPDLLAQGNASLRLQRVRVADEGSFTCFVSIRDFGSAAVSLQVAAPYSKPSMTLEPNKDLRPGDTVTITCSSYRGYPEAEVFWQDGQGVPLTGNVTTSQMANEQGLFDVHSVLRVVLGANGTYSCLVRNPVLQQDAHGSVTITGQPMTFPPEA
From the text: The humanized anti-B7-H3 antibodies prepared in Example 4 were subjected to affinity assay by Biacore. The antigen 4Ig-B7-H3-His was first coupled to the surface of a CM5 chip (GE, Cat. No. BR100012), and the active groups of the uncoupled protein were blocked with ethanolamine. After the baseline was stable, the hu39-01, hu65-13, and hBRCA84D antibodies were respectively diluted in equal proportions. The diluted antibodies of each concentration were placed on the sample injection tray of the instrument in sequence, and the program was set to inject samples respectively.

[2] = target: T1, human 4Ig-B7-H3-His protein; test: ELISA, plate coated with human 4Ig-B7-H3-His, detection with anti-human IgG HRP, OD450
Procedure: The binding activity of antibodies was analyzed by ELISA. 96-well ELISA plates were coated with human 4Ig-B7-H3-His protein or 2Ig-B7-H3-His protein (1 μg/well, prepared in Examples 1 and 2) and incubated overnight at 4° C. The plates were washed 3 times with 1×PBST and then blocked with 5% skim milk at 37° C. for 2 h. After washing 3 times with 1×PBST, the anti-B7-H3 antibody of the present disclosure was used as the primary antibody and added to the ELISA plates in 5-fold gradient dilution starting from 2 μg/mL with a total of 8 concentrations: 2,000 ng/mL, 400 ng/mL, 80 ng/mL, 16 ng/mL, 3.2 ng/mL, 0.64 ng/mL, 0.128 ng/mL and 0.0256 ng/mL respectively. The plates were incubated at 37° C. for 2 h with hBRCA84D as the positive control antibody. After washing 5 times with 1×PBST, Anti-Human IgG HRP (Jackson, 109-035-003, 1:5000) was used as the secondary antibody and incubated at 37° C. for 1 h. After washing 5 times with 1×PBST, color developing solution TMB was added to the plate, and microplate reader (Thermo, Multiskan FC) was used to read OD450 value after termination of the reaction. EC₅₀ was generated by GraphPad.

Kd [1]: 0.455 nM | koff [1]: 0.000111 s⁻¹ | kon [1]: 243000 M⁻¹ s⁻¹ | EC50 (read off the curve) [2]: ~5 ng/mL
B1: hBRCA84D (antibody, human IgG1, kappa, V domains shown)
VH: EVQLVESGGGLVQPGGSLRLSCAASGFTFSSFGMHWVRQAPGKGLEWVAYISSDSSAIYYADTVKGRFTISRDNAKNSLYLQMNSLRDEDTAVYYCGRGRENIYYGSRLDYWGQGTTVTVSS
VL: DIQLTQSPSFLSASVGDRVTITCKASQNVDTNVAWYQQKPGKAPKALIYSASYRYSGVPSRFSGSGSGTDFTLTISSLQPEDFATYYCQQYNNYPFTFGQGTKLEIKR
notes: Humanized antibody from WO2011/109400; also called positive control antibody hBRCA84D; control antibody hBRCA84D
